In test [1] the target is rabbit skeletal-muscle F-actin (rabbit) (UniProt P68135). Put plainly: co-sedimentation; 0.2-3.5 µM tropomyosin with 3 µM F-actin in T buffer (150 mM NaCl, 10 mM Tris-HCl pH 7.5, 2 mM MgCl2), 50 µL, 1 h at room temperature; 670,000 x g, 20 °C, 30 min; SDS-PAGE densitometry; Hill equation fit; apparent Kd.
The target of test [2] is α-actin filament (muscle actin, polymerized from G-actin) (UniProt P68135). The test is described as follows: TIRF microscopy of tropomyosin-decorated single actin filaments; control experiments: the same Tpm isoform labeled with AF488 and with AF568 (0.015 µM of each) mixed with 1 µM G-actin in D buffer, polymerized with 50 mM NaCl for 5-10 min, 10% PEG 300; decorated filaments captured on PLL-PEG/BSA coverslips in microfluidic channels, washed with TIR50 buffer.

Test [3] concerns the target β-actin filament (cytoskeletal actin, polymerized from G-actin) (UniProt P60709). The description is as above.

Tpm1.6 (Tm2), unlabeled recombinant human cytoskeletal tropomyosin (natural protein; modification not given), sequence (chain, as listed by the source): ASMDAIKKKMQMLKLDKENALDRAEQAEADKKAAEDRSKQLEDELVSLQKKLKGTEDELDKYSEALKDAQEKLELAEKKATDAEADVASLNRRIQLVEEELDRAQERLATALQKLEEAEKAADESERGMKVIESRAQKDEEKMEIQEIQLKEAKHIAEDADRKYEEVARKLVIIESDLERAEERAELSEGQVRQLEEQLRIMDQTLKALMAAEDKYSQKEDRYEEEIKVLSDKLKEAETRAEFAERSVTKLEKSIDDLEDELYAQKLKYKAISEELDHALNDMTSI

As for “Tpm1.1 (αTm), unlabeled recombinant rat skeletal/cardiac muscle tropomyosin (natural protein)”, in test [1], the Kd was found to be 0.64 µM.

In the case of “Tpm1.1 AF488 (Tpm1.1 labeled at Cys-190 with Alexa Fluor 488 C5 maleimide) (natural protein)”, in test [1], the Kd was found to be 0.17 µM.

Regarding “Tpm1.1 AF568 (Tpm1.1 labeled at Cys-190 with Alexa Fluor 568 C5 maleimide) (natural protein)”, the Kd in test [1] came out at 0.24 µM. For the same substance, the ratio of Tpm in Ch1 (red, AF568)/Ch2 (green, AF488) on the filament, median in test [2] and in test [3] was 0.9 throughout.

With “Tpm1.6 (Tm2), unlabeled recombinant human cytoskeletal tropomyosin (natural protein; modification not given)”, in test [1], the Kd was 0.44 µM.

These data come from article PMC11506546.
